The results in this text go back to PMC3130014, “The Cryo-EM Structure of a Complete 30S Translation Initiation Complex from Escherichia coli” (PLoS Biology, 2011).

In the test the target is T1, initiation factor 2 (IF2α) from E. coli (E. coli, UniProt P0A705 1-890).
T1 construct: Translation initiation factor IF2, alpha form (IF2α), E. coli; CTD: G2 391-559, G3 560-672, C1 673-779, C2 780-890); source: prepared as described [14]
Put plainly: cryo-EM structure; 30S IC reconstituted from 30S subunits (0.1 µM), IF1 (0.3 µM), IF2α (0.2 µM), IF3 (0.3 µM), 002 mRNA (0.6 µM), fMet-tRNA^fMet (0.6 µM), GDPNP (0.5 mM); 37°C 15 min, buffer A (50 mM Tris-HCl pH 7.5, 70 mM NH4Cl, 30 mM KCl, 7 mM MgCl2); class 2 map at 18.3/15 Å; rigid-body and flexible fitting of a homology model of IF2. As to conditions: both partners purified.

T1 sequence (P0A705 whole entry): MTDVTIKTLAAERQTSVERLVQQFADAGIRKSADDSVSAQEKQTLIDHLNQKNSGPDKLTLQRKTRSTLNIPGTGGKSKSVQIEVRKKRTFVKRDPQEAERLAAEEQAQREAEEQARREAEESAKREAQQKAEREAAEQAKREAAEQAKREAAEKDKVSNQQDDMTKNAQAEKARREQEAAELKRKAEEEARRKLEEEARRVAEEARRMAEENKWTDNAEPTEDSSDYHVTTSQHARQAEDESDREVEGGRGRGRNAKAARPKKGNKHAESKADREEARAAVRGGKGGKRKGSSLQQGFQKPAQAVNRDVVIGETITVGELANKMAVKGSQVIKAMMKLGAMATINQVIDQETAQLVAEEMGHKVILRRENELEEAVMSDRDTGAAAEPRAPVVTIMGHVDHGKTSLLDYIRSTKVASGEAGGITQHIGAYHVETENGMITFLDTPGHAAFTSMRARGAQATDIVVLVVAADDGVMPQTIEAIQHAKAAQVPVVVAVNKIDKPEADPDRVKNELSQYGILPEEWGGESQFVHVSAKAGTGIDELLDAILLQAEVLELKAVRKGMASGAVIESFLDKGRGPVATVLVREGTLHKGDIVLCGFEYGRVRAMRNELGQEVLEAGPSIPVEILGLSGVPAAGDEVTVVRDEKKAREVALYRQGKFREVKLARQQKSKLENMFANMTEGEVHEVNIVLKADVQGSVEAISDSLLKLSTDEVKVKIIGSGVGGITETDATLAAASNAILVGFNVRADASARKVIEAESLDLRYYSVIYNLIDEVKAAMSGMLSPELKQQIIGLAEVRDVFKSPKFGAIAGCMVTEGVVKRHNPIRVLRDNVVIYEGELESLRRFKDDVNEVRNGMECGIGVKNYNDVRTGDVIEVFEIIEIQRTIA

B1: initiation factor 1 (IF1) from E. coli (natural protein, UniProt P69222 1-72, looked up)
chain: MAKEDNIEMQGTVLETLPNTMFRVELENGHVVTAHISGKMRKNYIRILTGDKVTVELTPYDLSKGRIVFRSR
notes: Translation initiation factor IF1, E. coli; source: prepared as described [14]
With B1, the binding result is “binds”.
